Target: ovalbumin-hippuric acid conjugate (OVA-HA) (UniProt P01012)
Assay: indirect ELISA on hippuric acid antigen, purified soluble scFv-E tag at 10-fold dilution, rabbit anti-E tag and goat anti-rabbit IgG-HRP detection

UniProt P01012, sequence (P01012 2-386 limits assumed): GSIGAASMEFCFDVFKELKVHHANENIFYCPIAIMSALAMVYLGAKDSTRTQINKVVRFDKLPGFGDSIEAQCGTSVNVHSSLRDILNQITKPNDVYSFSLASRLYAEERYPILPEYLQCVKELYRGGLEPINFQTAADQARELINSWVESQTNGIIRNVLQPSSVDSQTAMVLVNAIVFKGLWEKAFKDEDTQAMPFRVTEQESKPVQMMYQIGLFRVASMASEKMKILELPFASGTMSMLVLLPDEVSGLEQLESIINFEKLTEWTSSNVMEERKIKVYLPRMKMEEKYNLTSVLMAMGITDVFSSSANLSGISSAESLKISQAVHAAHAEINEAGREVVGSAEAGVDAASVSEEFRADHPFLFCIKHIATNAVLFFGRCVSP

B1: soluble single chain variable fragment scFv-E tag derived from 4D31G111B7 (scFv)
scFv: AAQPAEVMLVESGASVKISCKASGYSFTGYYMHWVKQSHVKTLEWVGRITPYNGATNYNQNFKDKASLTVDKSSSTAYMEFHSLTSEDSAVYYCVRMYADVWGAGTSVTVSSVKTTPPSVYPLAPGGGGSGGGGSGGGGSEIVLTQSPSSLSASLGESVTLACRGASQDIGGRLNWLQQEADGTIKRLIYATSSLDSGVPKRFSGSRSGSDYSLTISSLESEDFVDYYCLQYDRSPYTFGGGTKLEIKRGDAAPTVAA
B1 was tested, and the antibody titer was 0.516.
